Molecular target: T1, 重组人SIRPα-his融合蛋白 (Acro Biosystems SIA-H5225) (human, UniProt P78324 31-370)
T1 construct: Bought reagent; also called 人SIRPα重组蛋白; not shown: his tag
Test: indirect ELISA screen of hybridoma supernatants, SIRPα-his coated

T1 sequence (P78324 31-370 limits assumed): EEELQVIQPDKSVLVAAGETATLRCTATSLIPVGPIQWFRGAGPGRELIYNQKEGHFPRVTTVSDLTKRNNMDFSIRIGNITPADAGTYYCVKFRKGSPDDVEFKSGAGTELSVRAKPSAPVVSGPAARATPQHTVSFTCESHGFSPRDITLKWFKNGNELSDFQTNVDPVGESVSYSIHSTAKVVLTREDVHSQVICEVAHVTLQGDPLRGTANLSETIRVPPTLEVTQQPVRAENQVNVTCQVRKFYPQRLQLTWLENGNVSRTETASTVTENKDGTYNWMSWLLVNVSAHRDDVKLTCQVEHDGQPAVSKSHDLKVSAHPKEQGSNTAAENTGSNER

B1: 杂交瘤细胞株12G6产生的抗人SIRPα单克隆抗体 (antibody, IgG2b, V domains shown)
VH: QIQLVQSGPELKKPGETVKISCKASGYTFTNYGMHWVKQAPGKDLKWMGWINTYTGEPTNADDFKGRFAFSLETSDRTAFLQINNLKNEDTATYFCARGHHYGNYAWFAYWGQGTLVTVSA
VL: DIVMTQSHKFMSTSVGDRVSITCKASQDVSLAVAWYQQKPGQSPKVLIYWASTRHTGVPDRFAGSGSGTDYTLTISSVQAEDLALYYCQQHYSTPWTFGGGTKLEIN
notes: also called 纯化的抗人SIRPα单克隆抗体
binding result: binds
